According to US20060257938A1, “Method of screening for drugs that block ligand binding to a lipid binding protein” (priority 2005, published 2006):
Where a chain is given by its changes, count along the chain named. Where “and” joins values, the source holds several entries; their conditions need not be identical. Equal entries are not always repeated.

B1: 73P, 72A (protein, listed as Rattus norvegicus)
chain: AFDGTWKVDRNENYEKFMEKMGINVVKRKLGAHDNLKLTITQEGNKFTVKESSNFRNIDVVFELGVDFAYSAPDGTELTGTWTMEGNKLVGKFKRVDNGKELIAVREISGNELIQTYTYEGVEAKRIFKKE
modifications: PEPTIDE (1)...(131) wild-type rat intestinal fatty acid binding protein
B2: 74T, 72A (protein, listed as Rattus norvegicus)
chain: B1 chain with P73A, D74T
modifications: PEPTIDE (1)...(131) wild-type rat intestinal fatty acid binding protein
B3: 78H1, 72A (protein, listed as Rattus norvegicus)
chain: B1 chain with P73A, L78H
modifications: PEPTIDE (1)...(131) wild-type rat intestinal fatty acid binding protein
B4: 74L, 72A (protein, listed as Rattus norvegicus)
chain: B1 chain with P73A, D74L
modifications: PEPTIDE (1)...(131) wild-type rat intestinal fatty acid binding protein
B5: 74N, 72A (protein, listed as Rattus norvegicus)
chain: B1 chain with P73A, D74N
modifications: PEPTIDE (1)...(131) wild-type rat intestinal fatty acid binding protein
B6: 73W, 72A (protein, listed as Rattus norvegicus)
chain: B1 chain with P73W
modifications: PEPTIDE (1)...(131) wild-type rat intestinal fatty acid binding protein
B7: 74Q, 72A (protein, listed as Rattus norvegicus)
chain: B1 chain with P73A, D74Q
modifications: PEPTIDE (1)...(131) wild-type rat intestinal fatty acid binding protein
B8: 73T, 72A (protein, listed as Rattus norvegicus)
chain: B1 chain with P73T
modifications: PEPTIDE (1)...(131) wild-type rat intestinal fatty acid binding protein
B9: 74C, 72A (protein, listed as Rattus norvegicus)
chain: B1 chain with P73A, D74C
modifications: PEPTIDE (1)...(131) wild-type rat intestinal fatty acid binding protein
B10: 73S, 72A (protein, listed as Rattus norvegicus)
chain: B1 chain with P73S
modifications: PEPTIDE (1)...(131) wild-type rat intestinal fatty acid binding protein
B11: 73Q, 72A (protein, listed as Rattus norvegicus)
chain: B1 chain with P73Q
modifications: PEPTIDE (1)...(131) wild-type rat intestinal fatty acid binding protein
B12: 78C2, 72A (protein, listed as Rattus norvegicus)
chain: B1 chain with P73A, L78C
modifications: PEPTIDE (1)...(131) wild-type rat intestinal fatty acid binding protein
B13: 78A3, 72A (protein, listed as Rattus norvegicus)
chain: B1 chain with P73A, L78A
modifications: PEPTIDE (1)...(131) wild-type rat intestinal fatty acid binding protein
B14: 73R, 72A (protein, listed as Rattus norvegicus)
chain: B1 chain with P73R
modifications: PEPTIDE (1)...(131) wild-type rat intestinal fatty acid binding protein
B15: 78F1, 72A (protein, listed as Rattus norvegicus)
chain: B1 chain with P73A, L78F
modifications: PEPTIDE (1)...(131) wild-type rat intestinal fatty acid binding protein
B16: 74A, 72A (protein, listed as Rattus norvegicus)
chain: B1 chain with P73A, D74A
modifications: PEPTIDE (1)...(131) wild-type rat intestinal fatty acid binding protein
B17: 73V, 72A (protein, listed as Rattus norvegicus)
chain: B1 chain with P73V
modifications: PEPTIDE (1)...(131) wild-type rat intestinal fatty acid binding protein

assay: Probe fluorescence ratio response to linolenic acid relative to ADIFAB2; type: binding; details: response relative to ADIFAB2
Method in brief: (§1)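 Each fatty acid's response was expressed relative to ADIFAB2, the rI-FABP-L72A probe, as ΔR/ΔRreference. ΔR is the change in the background-corrected two-wavelength intensity ratio R=Fλ1/Fλ2 from its analyte-free baseline R0. Emission was read near about 420-480 nm for unbound and about 495-580 nm for FFA-bound probe.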

Row | Molecule | DR/DR LNA
1 | B1 | 0.41
2 | B2 | 0.78
3 | B3 | 1.26
4 | B4 | 0.40 and 0.404
5 | B5 | 1.57
6 | B6 | 1.93
7 | B7 | 0.86
8 | B8 | 0.77 and 0.765
9 | B9 | 0.74
10 | B10 | 1.08
11 | B11 | 1.31
12 | B12 | 0.20
13 | B13 | 0.50
14 | B14 | 0.33
15 | B15 | 2.05
16 | B16 | 1.42
17 | B17 | 0.50 and 0.496

assay: Probe fluorescence ratio response to palmitic acid relative to ADIFAB2; type: binding; details: response relative to ADIFAB2
Method in brief: as §1

Row | Molecule | DR/DR PA
18 | B1 | 0.26
19 | B2 | 0.37
20 | B3 | 0.57
21 | B4 | 0.36 and 0.361
22 | B5 | 1.38
23 | B6 | 1.05
24 | B7 | 0.43
25 | B8 | 0.62 and 0.621
26 | B9 | 0.29
27 | B10 | 0.99
28 | B11 | 1.19
29 | B12 | 0.09
30 | B13 | 0.25
31 | B14 | 0.20
32 | B15 | 0.91
33 | B16 | 1.27
34 | B17 | 0.48 and 0.475

assay: Probe fluorescence ratio response to linoleic acid relative to ADIFAB2; type: binding; details: response relative to ADIFAB2
Method in brief: as §1

Row | Molecule | DR/DR LA
35 | B1 | 0.30
36 | B2 | 0.82
37 | B3 | 1.28
38 | B4 | 0.30 and 0.305
39 | B5 | 1.44
40 | B6 | 1.89
41 | B7 | 0.87
42 | B8 | 0.77 and 0.768
43 | B9 | 0.71
44 | B10 | 1.05
45 | B11 | 1.39
46 | B12 | 0.20
47 | B13 | 0.44
48 | B14 | 0.36
49 | B15 | 2.00
50 | B16 | 1.34
51 | B17 | 0.40 and 0.396

assay: Probe fluorescence ratio response to oleic acid relative to ADIFAB2; type: binding; details: response relative to ADIFAB2
Method in brief: as §1

Row | Molecule | DR/DR OA
52 | B1 | 0.30
53 | B2 | 0.70
54 | B3 | 1.13
55 | B4 | 0.19 and 0.188
56 | B5 | 1.52
57 | B6 | 1.66
58 | B7 | 0.74
59 | B8 | 0.78 and 0.778
60 | B9 | 0.56
61 | B10 | 0.96
62 | B11 | 1.28
63 | B12 | 0.19
64 | B13 | 0.41
65 | B14 | 0.27
66 | B15 | 1.83
67 | B16 | 1.34
68 | B17 | 0.60 and 0.603

assay: Probe fluorescence ratio response to arachidonic acid relative to ADIFAB2; type: binding; details: Arachidonic acid; response relative to ADIFAB2
Method in brief: as §1

Row | Molecule | DR/DR AA
69 | B1 | 0.42
70 | B2 | 0.76
71 | B3 | 1.23
72 | B4 | 0.22
73 | B5 | 1.62
74 | B6 | 1.77
75 | B7 | 0.81
76 | B8 | 0.87
77 | B9 | 0.83
78 | B10 | 1.01
79 | B11 | 1.36
80 | B12 | 0.15
81 | B13 | 0.48
82 | B14 | 0.40
83 | B15 | 2.04
84 | B16 | 1.42
85 | B17 | 0.98

same assay, conditions: arachidonic acid; response relative to ADIFAB2

Row | Molecule | DR/DR AA
86 | B4 | 0.222
87 | B8 | 0.872
88 | B17 | 0.976
